Assay results: patent publication US8722622B2, “FGF21 conjugates and anti-diabetic uses thereof” (COVX Technologies Ireland, Limited, priority 2010, dated 2014)

Key:
DIO mice = test: Mouse efficacy in high-fat diet-induced obese (DIO) mice; type: in vivo; conditions: day 10, 1 mg/kg QD
Protocol: (§1) The efficacy of FGF21 antibodies conjugates was evaluated in two murine obese insulin resistant models—ob/ob mice and high-fat diet-induced obese mice. For both models, male mice (6-8 weeks of age for ob/ob, 12-14 weeks of age for DIO with high-fat diet initiated at 6 weeks of age) were housed 2-4/cage and FGF21 antibody conjugates were administered by SC injection. Body weight was measured daily in the morning. Glucose tolerance was assessed by oral glucose tolerance test. Briefly, mice were fasted for 4-5 hrs in the morning of the day of testing. A basal blood sample was obtained and blood glucose levels were determined using a portable glucometer. Following basal sample, glucose was administered by oral gavage, and blood samples were drawn from 15 to 120 mins thereafter.
(§2) For […] expression, frozen visceral WAT samples collected from the in vivo efficacy studies were homogenized. Total RNA was extracted from the tissue homogenates, and Glut1 and GAPDH mRNA expression was measured using a Quantitect Probe RT-PCR kit and running a quantitative real time PCR reaction in a Taqman machine (Applied Biosystems). The effect of treatment was determined by a fold change in Glut1 mRNA levels normalized by the GAPDH mRNA levels from each sample.

[1] = system: Differentiated 3T3-L1 adipocytes; test: Glucose uptake assay; type: cell-based; conditions: unconjugated protein; n in brackets
Protocol: Differentiated 3T3-L1 adipocytes were treated with compounds in the absence of serum for 24 hrs. Cells were then incubated with ^14C-2-deoxyglucose for 1 hr and glucose uptake into the cells was quantitated in Wallac 1450 MicroBeta (Trilux) instrument. Glucose uptake was expressed in counts per min (CPM). EC50 values as measurements of the potency of the compounds were obtained from the dose response curves in the assay.

[2] = parameters: species or system Swiss-Webster mice; conditions: mouse, in vivo
Protocol: The PK of FGF21 antibody conjugates were examined in mice after IV or SC administration. […] Antibody conjugates concentrations in serum were determined using an ELISA which captured the FGF21 portion of the antibody conjugates through a monoclonal anti-hFGF21 antibody bound to a 96-well plate. FGF21 antibody conjugates bound to the plate were detected through an anti-hFc monoclonal antibody, and concentrations were determined using a standard curve of the PK dosing solution diluted into serum-containing assay buffer. SC bioavailability was calculated as the ratio of the area-under the curve (AUC) of the SC serum concentration profile divided by the AUC of the IV serum concentration profile.

[3] = system: obese insulin resistant (pre-diabetic) cynomolgus macaques; type: in vivo, Macaca fascicularis; conditions: 0.3 mg/kg QD
Protocol: […] adult cynomolgus monkeys (Macaca fascicularis) were included in the study. The monkeys (13 male, 11 female) were stratified into four treatment groups of 6 individuals, based on sex, body weight, and basal glycemic and lipid indices measured in a baseline plasma sample collected 2 weeks prior to the start of dosing. Animals were maintained on a high fat diet. Animals were dosed for 4 weeks followed by a 4 week washout period.
Blood samples were collected weekly during the dosing and washout periods, with the exception that no samples were collected at week 3 of washout. After an overnight fast (16-18 h), monkeys were sedated with ketamine 10-15 mg/kg by intramuscular (IM) injection. Body weights were recorded and blood (5 mL) was collected via percutaneous femoral venipuncture into ethylenediaminetetraacetic acid (EDTA) treated Vacutainer tubes pretreated with ˜1.8 trypsin inhibitor units (TIU) Aprotinin (Sigma 0.6 TIU per mL whole blood). Tubes were immediately placed on ice. Plasma was prepared by centrifugation, with the resulting plasma aliquoted and frozen at −80° C.
Data were treated in the same way for each pharmacodynamic endpoint. The baseline value for each individual monkey was subtracted from each timepoint to give a value corresponding to change from baseline. Changes from baseline values were averaged for each timepoint in each treatment group and standard error of the mean (SEM) calculated. Results are reported as mean change from baseline±SEM for each treatment group over the timecourse of the study. […] As there was no vehicle control group for the FGF21ΔH treated animals, the raw data and not the change from baseline value was used to assess statistical significance. In this case a student's T-test (two sided, paired sample) was carried out vs. baseline. […]
Plasma fructosamine was measured via an enzymatic colorimetric method using the Ace Alera Clinical Chemistry Analyzer using a kit from Roche Diagnostics®(Mannheim, Germany) according to manufacturer's instructions. […] Significant reduction in plasma fructosamine levels over time indicates improved glycemic control. […]
TPC levels were measured using enzymatic methods on the Ace Alera analyzer. There was a significant decrease in TPC after 1 week of treatment in all treatment groups (FIG. 9H).
TG levels were measured using enzymatic methods on the Ace Alera analyzer.
Non-esterified free fatty acids (FFA) were measured using enzymatic methods on a Roche Cobas® C311 clinical chemistry analyzer using protocols and reagents from Wako® (Wako Diagnostics, Richmond, Va.) according to manufacturer's instructions.
HDL levels were measured using enzymatic methods on the Ace Alera analyzer. There was no significant change in HDL cholesterol over the treatment period in any of the treatment groups.
LDL levels were measured using enzymatic methods on the Ace Alera analyzer.
TOTK were measured using enzymatic methods on a Roche Cobas® C311 clinical chemistry analyzer using protocols and reagents from Wako®.
Adiponectin levels were determined using a Mercodia® ELISA kit.
C-reactive protein (CRP) was measured using an ELISA kit from ALPCO Diagnostics® (Salem, N.H.) according to manufacturer's instructions. […] Levels trended back to baseline during the washout phase.
Leptin was measured by Luminex® technology (Millipore® catalogue number HMH-34K) with protocols and reagents according to manufacturer's instructions.
Adipsin levels were measured using and R&D Systems® (Minneapolis Minn.) human complement factor D Quantikine kit (catalogue number DFD00) according to manufacturer's instructions. […] The levels trended back towards baseline during the washout phase.

ob/ob mice = test: Mouse efficacy in ob/ob mice (OGTT, body weight, liver, gene expression); type: in vivo
Protocol: as §1, §2

[4] = ob/ob mice liver, day 6, qPCR, 1 mg/kg QD

B1: FGF21ΔH: FGF21 with H1 absent (ΔH1), L146, SEQ ID NO:2; control protein (protein, listed as Homo sapiens)
chain: PIPDSSPLLQFGGQVRQRYLYTDDAQQTEAHLEIREDGTVGGAADQSPESLLQLKALKPGVIQILGVKTSRFLCQRPDGALYGSLHFDPEACSFRELLLEDGYNVYQSEAHGLPLHLPGNKSPHRDPAPRGPARFLPLPGLPPAPLEPPGILAPQPPDVGSSDPLSMVGPSQGRSPSYAS
- Body weight change from day −1 (DIO mice): −1.6
- Glucose AUC during OGTT (DIO mice): 75
- Mean values of serum lipids NEFA (DIO mice): 0.40 mM
- Mean values of serum lipids TG (DIO mice): 92 mg/dL
- UCP1 mRNA expression in WAT (DIO mice): 1.38
- EC50 [1]: 12 nM
- IV T1/2 ([2]; iv): 24 min
- % SC BioAv ([2]; sc): 96%
- SC T1/2 ([2]; sc): 30 min
- LDL cholesterol [3]: significant decrease in LDL cholesterol levels was only observed after 1 week of treatment
- non-esterified free fatty acids (FFA) [3]: significantly increased over the first 2 weeks of treatment
- plasma adiponectin [3]: trended upwards
- body weight ([3]; 4 weeks, vs baseline): significant decrease in body weight
- plasma fructosamine ([3]; after 3 weeks): significantly reduced
- triglycerides (TG) ([3]; dosing period): significant decrease in TG
- total ketone bodies (TOTK) ([3]; first 3 weeks of treatment): significantly increased
- plasma leptin ([3]; not significant): decreased
- plasma C-reactive protein (CRP) ([3]; significance only at 1 week washout): decreased
- GTT* (% AUC of Ctrl) (ob/ob mice; 1 mg/kg Qd (FGF21dH protein)): 67 % AUC of Ctrl
- Mean fold changes of mRNA expression, FoxA2 (ob/ob mice; [4]): 1.23 fold
- Mean fold changes of mRNA expression, MOGAT2 (ob/ob mice; [4]): 0.37 fold
- Mean fold changes of mRNA expression, SCD1 (ob/ob mice; [4]): 0.95 fold
- Mean Glucose AUC (% of vehicle control) (ob/ob mice; ob/ob mice, OGTT day 6, 1 mg/kg QD): 61 % of vehicle control
- Body weight change from day −1 (ob/ob mice; ob/ob mice, day 6, 1 mg/kg QD): 4.7
- Glucose AUC during OGTT (ob/ob mice; ob/ob mice, day 6, 1 mg/kg QD): 67
- Liver Weight (ob/ob mice; ob/ob mice, day 6, 1 mg/kg QD): 1.8 g
- Triglycerides content in liver (ob/ob mice; ob/ob mice, day 6, 1 mg/kg QD): 37.0
- UCP1 mRNA expression in WAT (ob/ob mice; ob/ob mice, day 6, 1 mg/kg QD): 2.6
- Mean Glucose AUC (% of vehicle control) during OGTT (ob/ob mice; ob/ob mice, single SC dose 0.6 mg/kg (FIG. 4A)): 103 % of vehicle control
- Cumulative body weight change, mean body weight (ob/ob mice; ob/ob mice, single SC dose 0.6 mg/kg (FIG. 5A)): 3.2 g
- mean liver weight (ob/ob mice; ob/ob mice, single SC dose 0.6 mg/kg (FIG. 5B)): 2.4 g
- Cumulative body weight change, mean body weight (ob/ob mice; ob/ob mice, single SC dose 1 mg/kg (FIG. 5A)): 2.5 g
- mean liver weight (ob/ob mice; ob/ob mice, single SC dose 1 mg/kg (FIG. 5B)): 2.2 g
- Mean Glucose AUC (% of vehicle control) during OGTT (ob/ob mice; ob/ob mice, single SC dose 1 mg/kg (FIGS. 4A, 4B)): 74 % of vehicle control
- Cumulative body weight change, mean body weight (ob/ob mice; ob/ob mice, single dose, dose not printed (FIG. 6A)): 1.9 g
- mean glucose AUC % during OGTT (ob/ob mice; ob/ob mice, single dose, dose not printed (FIG. 6B)): 63%
